Experiment [1] concerns the target PIR91 ribosome-bound nascent chain (full-length PIR RNC, wild type) (UniProt O88900). The experiment is described as follows: cross-linking; titration of resuspended PIR91 RNCs with DnaK/DnaJ/GrpE (5:1:2, up to 50/10/25 µM), ADP, 50 mM KCl, 5 mM Mg2+, then EDC 80 mM, 30 min, 30 °C; fraction cross-linked to DnaK fitted to a two-state model; apparent.
Experiment [2] has the same target. The experiment is described as follows: cross-linking; titration of resuspended PIR91 RNCs with TF (up to 40 µM), 10 min on ice, then EDC 80 mM, 30 min, 30 °C; standard resuspension buffer, 10 mM Mg(OAc)2, pH 7.0; fraction cross-linked fitted to a two-state model; apparent.

As to “E. coli Hsp70 (DnaK), purified, ADP-bound, added as K/J/E mixture (from UniProt P0A6Y8 1-638) (natural protein)”, the Kd in experiment [1] worked out at 109 µM.
For the substance “Trigger factor (TF), purified wild type (from UniProt P0A850 1-432) (natural protein)”, the Kd in experiment [2] stood at 3.8 µM.

Source of the values: publication PMC8556260.
